# In patent US20150152166A1:
# Experiments:
# [1] = molecular target: CMV gp116 epitope AD2 site peptide … (CMV (human cytomegalovirus)); test: kinetic affinity measurement, method not stated; antigen taken as AD2 peptide; same value as r7, table re-sorted by koff
# [2] = molecular target: CMV gp116 epitope AD2 site peptide … (CMV (human cytomegalovirus)); test: kinetic affinity measurement, method not stated; antigen taken as CMV gp116 AD2 peptide
# [3] = molecular target: GPCMV gB (glycoprotein B of guinea pig CMV strain V545/82) (guinea pig cytomegalovirus); test: cell-based or functional assay
substance,measurement,setting,value
ITC88 control antibody,Kd,[1],1.51 nM
same,koff,[1],0.00116 s⁻¹
same,kon,[1],767000 M⁻¹ s⁻¹
same,Kd,[2],1.51 nM
same,koff,[2],0.00116 s⁻¹
same,kon,[2],767000 M⁻¹ s⁻¹
same,neutralization of GPCMV V545/82 entry into JH4 cells; highest concentration tested without effect,[3],> 300 ng/mL
